From patent publication US20160304622A1 (GENEFRONTIER, published 2016) come the findings set out here.

As usually defined, the Kd is the free concentration of one partner at which half of the binding sites on the other are occupied at equilibrium, for simple one-to-one binding.

In assay [1] the target is T1, Recombinant ADAMTS5 protein containing the metalloproteinase, disintegrin and thrombospondin domains … (human, UniProt Q9UNA0 262-622).
T1 construct: Bought from R&D Systems
T1 sequence: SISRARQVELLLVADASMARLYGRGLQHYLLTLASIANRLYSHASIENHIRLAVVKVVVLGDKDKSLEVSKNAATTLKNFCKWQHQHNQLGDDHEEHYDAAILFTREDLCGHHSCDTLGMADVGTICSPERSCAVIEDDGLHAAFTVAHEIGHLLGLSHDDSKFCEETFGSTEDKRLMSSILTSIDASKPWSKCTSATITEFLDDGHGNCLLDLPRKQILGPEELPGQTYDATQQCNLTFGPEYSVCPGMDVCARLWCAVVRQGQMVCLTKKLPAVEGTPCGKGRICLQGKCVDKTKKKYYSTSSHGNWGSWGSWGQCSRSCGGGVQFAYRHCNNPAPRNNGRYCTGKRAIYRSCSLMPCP
Put plainly: SPR (BIAcore 3000), ADAMTS amine-coupled on CM5 chip, IgG1 injected. The protocol:
(§1) Surface plasma resonance interaction (BIAcore) analysis Recombinant ADAMTS species were covalently immobilized via amine coupling on CM5 sensor chip flow chambers (GE Healthcare Life Sciences, Buckinghamshire, UK). […] The KD (the affinity) was calculated from the determined Kₐ and Kd values.

Assay [2] has as its target T2, recombinant human ADAMTS4 (residues Phe213-Cys685, C-terminal Strep-tag II) (human, UniProt O75173 213-685).
T2 construct: Made in HEK293T cells; metalloproteinase, disintegrin, thrombospondin and cysteine-rich domains; also called recombinant ADAMTS4; not shown: Strep-tag II at the C-terminal
T2 sequence: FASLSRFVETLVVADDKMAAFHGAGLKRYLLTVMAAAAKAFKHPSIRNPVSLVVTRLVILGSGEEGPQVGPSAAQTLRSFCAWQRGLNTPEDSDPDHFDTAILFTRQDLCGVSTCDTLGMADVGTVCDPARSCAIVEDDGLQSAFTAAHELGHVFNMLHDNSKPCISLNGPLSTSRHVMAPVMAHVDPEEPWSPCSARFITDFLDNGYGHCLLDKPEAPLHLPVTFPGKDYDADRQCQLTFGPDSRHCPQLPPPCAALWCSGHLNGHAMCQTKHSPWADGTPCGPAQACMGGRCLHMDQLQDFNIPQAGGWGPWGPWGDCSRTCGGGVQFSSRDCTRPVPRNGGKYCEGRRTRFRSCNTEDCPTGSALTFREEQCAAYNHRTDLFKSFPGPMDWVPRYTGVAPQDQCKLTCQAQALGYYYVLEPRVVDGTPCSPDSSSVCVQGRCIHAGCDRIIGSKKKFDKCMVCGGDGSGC
The description is as above. The protocol: as §1

The target in assay [3] is T3, peptide #37 of the human ADAMTS4 peptide array (GKYCEGRRTRFR) (human).
T3 construct: Immobilized on a peptide array
T3 peptide: GKYCEGRRTRFR
Nature of the assay: peptide array, HRP-labeled antibody. From the text: (§2) To be specific, as shown in the following Table, a peptide array consisting of peptides having the residue number of 12 amino acid residues and an offset of 3 amino acid residues was produced relative to a sequence covering the thrombospondin domain of human ADAMTS4.

For assay [4], the target named is T4, peptide #39 of the human ADAMTS4 peptide array (YCEGRRTRFRSC) (human).
T4 construct: Immobilized on a peptide array
T4 peptide: YCEGRRTRFRSC
Put plainly: peptide array, HRP-labeled antibody.
Text: as §2

Assay [5] concerns the target T5, peptide #36 of the human ADAMTS4 peptide array (GGKYCEGRRTRF) (human).
T5 construct: Immobilized on a peptide array
T5 peptide: GGKYCEGRRTRF
Nature of the assay: peptide array, HRP-labeled antibody.
Text: as §2

For assay [6], the target named is T6, peptide #38 of the human ADAMTS4 peptide array (KYCEGRRTRFRS) (human).
T6 construct: Immobilized on a peptide array
T6 peptide: KYCEGRRTRFRS
Put plainly: peptide array, HRP-labeled antibody.
Text: as §2

B1: human anti-ADAMTS antibody (IgG1; clone 237-53) (antibody, V domains shown)
VH: QVQLVQSGAEVKKPGSSVKVSCKASGGTFSSFAISWVRQAPGQGLEWMGGIFPIFGQANYAQKFQGRVTITADESTSTAYMELSSLRSEDTAVYYCARFSDWWEWQMDYWGQGTLVTVSS
VL: DIVMTQSPDSLAVSLGERATINCRSSQSILYSSNNNYLAWYQQKPGQPPKLLIHTASARESGVPDRFSGSGSGTDFTLTISSLQAEDVAVYYCQQYYSVSITFGQGTKVEIKR
notes: HRP-labeled in the peptide array
Take B1: the values for the Kd in assay [1] and in assay [2] were 1.46 nM and 11.7 nM, respectively. For the same molecule, the binding result in assay [3], in assay [4], in assay [5] and in assay [6] was “binds” throughout.
